Experimental data from article PMC5425128, “Functional human GRIN2B promoter polymorphism and variation of mental processing speed in older adults”.

Target: T1, Elk-1 (human, UniProt P19419 1-428)
T1 sequence: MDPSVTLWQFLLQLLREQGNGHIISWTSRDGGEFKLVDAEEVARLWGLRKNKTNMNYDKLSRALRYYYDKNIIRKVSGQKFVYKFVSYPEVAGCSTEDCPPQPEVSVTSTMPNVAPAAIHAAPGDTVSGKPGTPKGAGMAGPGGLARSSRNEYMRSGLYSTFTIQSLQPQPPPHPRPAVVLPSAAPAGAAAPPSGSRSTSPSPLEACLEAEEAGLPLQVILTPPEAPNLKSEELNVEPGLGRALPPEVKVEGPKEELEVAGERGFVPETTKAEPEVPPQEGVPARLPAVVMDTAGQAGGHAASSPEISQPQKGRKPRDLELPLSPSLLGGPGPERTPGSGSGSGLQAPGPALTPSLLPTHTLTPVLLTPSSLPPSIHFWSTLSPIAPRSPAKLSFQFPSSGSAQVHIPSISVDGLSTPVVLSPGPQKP
Test: EMSA; 1 ug Elk-1, 10 mM MgCl2, no poly(dI-dC); 50 mM HEPES pH 7.5, 10 mM MgCl2, 5% glycerol, 1 mM DTT, 0.3% BSA, 1 mM EDTA; 1 h on ice; 6% gel (HEPES buffer pH 6.3), no poly(dI-dC)
Details: protein: commercial; blunt

B1: GRIN2B A allele (rs3764030 A) (dsDNA)
DNA 1: CATCTCCGGGGAACACGCGAA
DNA 2: TTCGCGTGTTCCCCGGAGATG
B1: binds.
